Measured values published in the supplement of paper PMC11246515.
± gives the standard deviation of the averaged measurements.

Experiment: total protein half-life in vivo (active degradation + dilution); higher = more stable protein
[1] = E. coli NCM3722 delta-clpP delta-lon delta-hslV, growth: N-lim chemostat, doubling time 6 h
[2] = E. coli NCM3722 delta-hslV, growth: N-lim chemostat, doubling time 6 h
[3] = E. coli NCM3722 delta-lon, growth: N-lim chemostat, doubling time 6 h
[4] = E. coli NCM3722 delta-smpB, growth: N-lim chemostat, doubling time 6 h
[5] = wild type E. coli NCM3722, growth: C-lim chemostat, doubling time 3 h
[6] = wild type E. coli NCM3722, growth: C-lim chemostat, doubling time 6 h
[7] = wild type E. coli NCM3722, growth: C-lim chemostat, doubling time 12 h
[8] = wild type E. coli NCM3722, growth: N-lim chemostat, doubling time 6 h
[9] = wild type E. coli NCM3722, growth: N-lim chemostat, doubling time 12 h
[10] = wild type E. coli NCM3722, growth: P-lim chemostat, doubling time 6 h
[11] = wild type E. coli NCM3722, growth: P-lim chemostat, doubling time 12 h
[12] = E. coli NCM3722 delta-clpP, growth: N-lim chemostat, doubling time 6 h

## MNKSQLIDKIAAGADISKAAAGRALDAIIASVTESLKEGDDVALVGFGTFAVKERAARTGRNPQTGKEITIAAAKVPSFRAGKALKDAVN [P0ACF4]
[1]
  total protein half-life in vivo: 7.01 ± 0.69 h
[2]
  total protein half-life in vivo: 5.94 ± 0.61 h
[3]
  total protein half-life in vivo: 6.96 ± 0.96 h
[4]
  total protein half-life in vivo: 5.51 ± 0.24 h
[5]
  total protein half-life in vivo: 2.88 ± 0.054 h
[6]
  total protein half-life in vivo: 5.1 ± 0.35 h
[7]
  total protein half-life in vivo: 7.44 ± 0.28 h
[8]
  total protein half-life in vivo: 5.035 ± 0.04 h
[9]
  total protein half-life in vivo: 10.813 ± 0.0038 h
[10]
  total protein half-life in vivo: 4.6 ± 0.72 h
[11]
  total protein half-life in vivo: 10.8 ± 0.92 h

## MNKTITALAIMMASFAANASVLPETPVPFKSGTGAIDNDTVYIGLGSAGTAWYKLDTQAKDKKWTALAAFPGGPRDQATSAFIDGNLYVFGGIGKNSEGLTQVFNDVHKYNPKTNSWVKLMSHAPMGMAGHVTFVHNGKAYVTGGVNQNIFNGYFEDLNEAGKDSTAIDKINAHYFDKKAEDYFFNKFLLSFDPSTQQWSYAGESPWYGTAGAAVVNKGDKTWLINGEAKPGLRTDAVFELDFTGNNLKWNKLAPVSSPDGVAGGFAGISNDSLIFAGGAGFKGSRENYQNGKNYAHEGLKKSYSTDIHLWHNGKWDKSGELSQGRAYGVSLPWNNSLLIIGGETAGGKAVTDSVLITVKDNKVTVQN
[1]
  total protein half-life in vivo: 5.85 ± 0.22 h
[2]
  total protein half-life in vivo: 5.99 ± 0.77 h
[3]
  total protein half-life in vivo: 6.24 ± 0.61 h
[4]
  total protein half-life in vivo: 6.27 ± 1.1 h
[5]
  total protein half-life in vivo: 3.12 ± 0.2 h
[6]
  total protein half-life in vivo: 6.33 ± 0.044 h
[7]
  total protein half-life in vivo: 12.6 ± 1.2 h
[8]
  total protein half-life in vivo: 6.32 ± 0.1 h
[9]
  total protein half-life in vivo: 11.5 ± 1.4 h
[10]
  total protein half-life in vivo: 5.97 ± 0.41 h
[11]
  total protein half-life in vivo: 13.9 ± 1.4 h

## MNKTQLIDVIAEKAELSKTQAKAALESTLAAITESLKEGDAVQLVGFGTFKVNHRAERTGRNPQTGKEIKIAAANVPAFVSGKALKDAVK [P0ACF0]
[1]
  total protein half-life in vivo: 7.47 ± 0.039 h
[12]
  total protein half-life in vivo: 6.29 ± 0.51 h
[2]
  total protein half-life in vivo: 5.45 ± 0.31 h
[3]
  total protein half-life in vivo: 6.06 ± 0.22 h
[4]
  total protein half-life in vivo: 5.39 ± 0.12 h
[5]
  total protein half-life in vivo: 3.04 ± 0.19 h
[6]
  total protein half-life in vivo: 5.55 ± 0.72 h
[7]
  total protein half-life in vivo: 10 ± 0.23 h
[8]
  total protein half-life in vivo: 5.15 ± 0.27 h
[9]
  total protein half-life in vivo: 11.91 ± 0.1 h
[10]
  total protein half-life in vivo: 4.73 ± 0.92 h
[11]
  total protein half-life in vivo: 11.1 ± 1.5 h

## MNKVVLLCRPGFEKECAAEITDKAGQREIFGFARVKENAGYVIYECYQPDDGDKLIRELPFSSLIFARQWFVVGELLQHLPPEDRITPIVGMLQGVVEKGGELRVEVADTNESKELLKFCRKFTVPLRAALRDAGVLANYETPKRPVVHVFFIAPGCCYTGYSYSNNNSPFYMGIPRLKFPADAPSRSTLKLEEAFHVFIPADEWDERLANGMWAVDLGACPGGWTYQLVKRNMWVYSVDNGPMAQSLMDTGQVTWLREDGFKFRPTRSNISWMVCDMVEKPAKVAALMAQWLVNGWCRETIFNLKLPMKKRYEEVSHNLAYIQAQLDEHGINAQIQARQLYHDREEVTVHVRRIWAAVGGRRDER [P0ADR6]
[1]
  total protein half-life in vivo: 5.236 ± 0.0068 h
[12]
  total protein half-life in vivo: 4.78 ± 0.26 h
[2]
  total protein half-life in vivo: 4.77 ± 0.28 h
[3]
  total protein half-life in vivo: 5.75 ± 1 h
[4]
  total protein half-life in vivo: 4.81 ± 0.15 h
[5]
  total protein half-life in vivo: 3.45 ± 0.77 h
[6]
  total protein half-life in vivo: 5.93 ± 0.44 h
[7]
  total protein half-life in vivo: 10.2 ± 0.49 h
[8]
  total protein half-life in vivo: 4.78 ± 0.28 h
[9]
  total protein half-life in vivo: 8.148 ± 0.00089 h
[10]
  total protein half-life in vivo: 5.72 ± 0.16 h
[11]
  total protein half-life in vivo: 11.6 ± 0.63 h

## MNKYQAVIIGFGKAGKTLAVTLAKAGWRVALIEQSNAMYGGTCINIGCIPTKTLVHDAQQHTDFVRAIQRKNEVVNFLRNKNFHNLADMPNIDVIDGQAEFINNHSLRVHRPEGNLEIHGEKIFINTGAQTVVPPIPGITTTPGVYDSTGLLNLKELPGHLGILGGGYIGVEFASMFANFGSKVTILEAASLFLPREDRDIADNIATILRDQGVDIILNAHVERISHHENQVQVHSEHAQLAVDALLIASGRQPATASLHPENAGIAVNERGAIVVDKRLHTTADNIWAMGDVTGGLQFTYISLDDYRIVRDELLGEGKRSTDDRKNVPYSVFMTPPLSRVGMTEEQARESGADIQVVTLPVAAIPRARVMNDTRGVLKAIVDNKTQRMLGASLLCVDSHEMINIVKMVMDAGLPYSILRDQIFTHPSMSESLNDLFSLVK
[1]
  total protein half-life in vivo: 5.58 ± 0.12 h
[12]
  total protein half-life in vivo: 4.727 ± 0.039 h
[2]
  total protein half-life in vivo: 4.73 ± 0.26 h
[3]
  total protein half-life in vivo: 5.53 ± 0.24 h
[4]
  total protein half-life in vivo: 4.9 ± 0.99 h
[5]
  total protein half-life in vivo: 3.31 ± 0.05 h
[7]
  total protein half-life in vivo: 10.4 ± 1 h
[8]
  total protein half-life in vivo: 4.71 ± 0.29 h
[9]
  total protein half-life in vivo: 8.5 ± 0.62 h
[10]
  total protein half-life in vivo: 6 ± 0.4 h
[11]
  total protein half-life in vivo: 12 ± 1.2 h

## MNLDDKSLFLDAMEDVQPLKRATDVHWHPTRNQRAPQRIDTLQLDNFLTTGFLDIIPLSQPLEFRREGLQHGVLDKLRSGKYPQQASLNLLRQPVEECRKMVFSFIQQALADGLRNVLIIHGKGRDDKSHANIVRSYVARWLTEFDDVQAYCTALPHHGGSGACYVALRKTAQAKQENWERHAKRSR
[12]
  total protein half-life in vivo: 3.15 ± 0.09 h
[2]
  total protein half-life in vivo: 0.92 ± 0.056 h
[4]
  total protein half-life in vivo: 0.889 h
[5]
  total protein half-life in vivo: 0.985 h
[6]
  total protein half-life in vivo: 1.35 h
[7]
  total protein half-life in vivo: 1.42 h
[8]
  total protein half-life in vivo: 1.06 ± 0.055 h
[9]
  total protein half-life in vivo: 1.33 ± 0.064 h
[10]
  total protein half-life in vivo: 1.28 h
[11]
  total protein half-life in vivo: 1.8 ± 0.54 h

## MNLEKINELTAQDMAGVNAAILEQLNSDVQLINQLGYYIVSGGGKRIRPMIAVLAARAVGYEGNAHVTIAALIEFIHTATLLHDDVVDESDMRRGKATANAAFGNAASVLVGDFIYTRAFQMMTSLGSLKVLEVMSEAVNVIAEGEVLQLMNVNDPDITEENYMRVIYSKTARLFEAAAQCSGILAGCTPEEEKGLQDYGRYLGTAFQLIDDLLDYNADGEQLGKNVGDDLNEGKPTLPLLHAMHHGTPEQAQMIRTAIEQGNGRHLLEPVLEAMNACGSLEWTRQRAEEEADKAIAALQVLPDTPWREALIGLAHIAVQRDR [P0AD57]
[1]
  total protein half-life in vivo: 4.19 ± 0.56 h
[12]
  total protein half-life in vivo: 4.1 ± 0.06 h
[2]
  total protein half-life in vivo: 3.69 ± 0.19 h
[3]
  total protein half-life in vivo: 5.2 ± 0.3 h
[4]
  total protein half-life in vivo: 4.09 ± 0.18 h
[5]
  total protein half-life in vivo: 3.02 ± 0.1 h
[6]
  total protein half-life in vivo: 5.42 ± 0.15 h
[7]
  total protein half-life in vivo: 9.86 ± 0.44 h
[8]
  total protein half-life in vivo: 3.93 ± 0.17 h
[9]
  total protein half-life in vivo: 6.372 ± 0.062 h
[10]
  total protein half-life in vivo: 5.64 ± 0.61 h
[11]
  total protein half-life in vivo: 11.4 ± 0.24 h
